These are literature values, as cited in article PMC8006918.

As a reminder, the Kd is a measure of binding affinity in units of concentration.

The target in data set [1] is Tenascin-C (Homo sapiens) (UniProt P24821).
For data set [2] the target is unchanged. This is another data set of the same source.
The target is the same in data set [3]. The source holds these as a separate data set.

Where two headings read alike, the source gives them in different places.

Tenascin-C (Homo sapiens), sequence (P24821 23-2201): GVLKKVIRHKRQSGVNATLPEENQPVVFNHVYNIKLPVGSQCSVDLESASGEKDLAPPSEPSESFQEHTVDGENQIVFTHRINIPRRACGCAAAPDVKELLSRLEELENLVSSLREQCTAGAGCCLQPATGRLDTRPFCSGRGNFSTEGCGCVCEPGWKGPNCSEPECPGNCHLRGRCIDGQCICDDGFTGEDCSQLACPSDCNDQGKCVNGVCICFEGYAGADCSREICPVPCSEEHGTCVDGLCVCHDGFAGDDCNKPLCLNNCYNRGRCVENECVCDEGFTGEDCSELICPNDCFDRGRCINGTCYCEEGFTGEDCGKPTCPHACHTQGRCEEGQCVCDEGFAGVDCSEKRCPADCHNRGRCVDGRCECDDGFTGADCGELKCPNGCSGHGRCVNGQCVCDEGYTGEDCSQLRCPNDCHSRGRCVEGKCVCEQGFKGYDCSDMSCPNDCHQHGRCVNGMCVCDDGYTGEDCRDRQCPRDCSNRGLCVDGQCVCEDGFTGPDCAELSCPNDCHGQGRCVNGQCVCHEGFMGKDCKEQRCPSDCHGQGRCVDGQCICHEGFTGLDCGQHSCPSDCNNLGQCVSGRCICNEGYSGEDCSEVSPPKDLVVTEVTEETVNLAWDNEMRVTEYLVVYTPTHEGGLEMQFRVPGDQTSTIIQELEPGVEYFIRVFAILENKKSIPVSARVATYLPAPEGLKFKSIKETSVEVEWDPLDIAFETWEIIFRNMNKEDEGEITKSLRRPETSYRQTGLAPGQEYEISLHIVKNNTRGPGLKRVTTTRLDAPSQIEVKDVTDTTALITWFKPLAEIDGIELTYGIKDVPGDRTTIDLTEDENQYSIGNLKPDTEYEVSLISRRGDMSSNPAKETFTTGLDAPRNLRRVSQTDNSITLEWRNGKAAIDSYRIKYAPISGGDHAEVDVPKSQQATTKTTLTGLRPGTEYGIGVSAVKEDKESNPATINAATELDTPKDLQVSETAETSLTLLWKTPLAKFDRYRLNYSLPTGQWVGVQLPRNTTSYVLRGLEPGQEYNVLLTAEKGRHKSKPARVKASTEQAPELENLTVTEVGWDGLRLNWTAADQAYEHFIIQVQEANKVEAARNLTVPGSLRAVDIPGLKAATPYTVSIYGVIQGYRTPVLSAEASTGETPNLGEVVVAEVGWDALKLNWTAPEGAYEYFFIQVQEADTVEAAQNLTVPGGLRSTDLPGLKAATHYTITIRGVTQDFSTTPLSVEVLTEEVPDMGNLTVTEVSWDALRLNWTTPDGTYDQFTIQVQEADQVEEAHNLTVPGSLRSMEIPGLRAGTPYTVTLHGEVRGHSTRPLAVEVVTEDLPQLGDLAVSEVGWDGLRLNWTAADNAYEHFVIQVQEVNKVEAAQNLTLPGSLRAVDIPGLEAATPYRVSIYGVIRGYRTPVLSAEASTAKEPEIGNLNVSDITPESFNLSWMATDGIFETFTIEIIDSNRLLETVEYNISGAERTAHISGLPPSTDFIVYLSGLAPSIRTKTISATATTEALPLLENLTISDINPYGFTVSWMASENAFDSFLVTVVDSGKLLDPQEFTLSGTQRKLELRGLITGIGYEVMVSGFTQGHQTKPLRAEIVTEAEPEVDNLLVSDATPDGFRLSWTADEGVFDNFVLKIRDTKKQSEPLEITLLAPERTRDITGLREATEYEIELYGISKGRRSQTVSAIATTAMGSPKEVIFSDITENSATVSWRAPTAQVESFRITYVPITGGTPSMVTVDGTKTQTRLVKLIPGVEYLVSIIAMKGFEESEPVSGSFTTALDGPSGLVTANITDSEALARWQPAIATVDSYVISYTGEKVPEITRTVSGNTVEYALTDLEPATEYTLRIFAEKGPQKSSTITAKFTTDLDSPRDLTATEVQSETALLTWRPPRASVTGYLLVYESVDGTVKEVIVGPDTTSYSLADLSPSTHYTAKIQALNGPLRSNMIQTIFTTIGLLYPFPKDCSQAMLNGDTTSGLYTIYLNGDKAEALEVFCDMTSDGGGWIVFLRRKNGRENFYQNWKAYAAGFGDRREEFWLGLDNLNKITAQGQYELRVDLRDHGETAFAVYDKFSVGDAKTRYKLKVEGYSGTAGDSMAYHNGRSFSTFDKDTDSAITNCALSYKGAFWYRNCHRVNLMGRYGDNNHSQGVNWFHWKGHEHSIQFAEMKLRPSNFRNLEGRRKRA
Fibronectin FN III13, sequence (P02751 1904-1992): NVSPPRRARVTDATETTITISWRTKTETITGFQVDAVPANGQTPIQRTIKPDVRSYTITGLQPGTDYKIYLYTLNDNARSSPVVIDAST
CCL21, sequence (O00585 24-134): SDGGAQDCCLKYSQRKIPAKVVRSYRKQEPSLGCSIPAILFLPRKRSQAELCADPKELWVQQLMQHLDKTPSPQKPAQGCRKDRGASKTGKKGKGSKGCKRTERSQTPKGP
TGF-β1, sequence (P01137 279-390): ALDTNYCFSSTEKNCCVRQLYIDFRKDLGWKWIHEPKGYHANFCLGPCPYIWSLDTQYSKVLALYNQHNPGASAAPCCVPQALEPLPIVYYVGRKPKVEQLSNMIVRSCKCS

As for CCL21 (from UniProt O00585), the Kd in data set [1] was 58 nM.

For the substance “Fibronectin FN III13 (from UniProt P02751)”, in data set [2], the Kd was 128 nM.

TGF-β1 (from UniProt P01137): the Kd in data set [3] is 20.3 nM.
